According to PMC11477141, “Chemokine Receptor N-Terminus Charge Dictates Reliance on Post-Translational Modifications for Effective Ligand Capture and Following Boosting by Defense Peptides” (International Journal of Molecular Sciences, 2024):
Where two headings read alike, the source gives them in different places. Values belong to the molecule of their own block, whether it stands above or below them.

What was measured:
CCR1 = molecular target: T1, CCR1 (Homo sapiens, UniProt P32246); assay: BRET CAMYEL cAMP sensor assay of ligand-induced Gαi signaling via CCR1; assay type: cell-based; settings: n = 3
T1 construct: expressed in transfected cells; host or cells: CHO-K1, CHO-pgsB618 (GAG-minus), HEK293 WT / DeltaSia / sC
T1 sequence (P32246 1-355): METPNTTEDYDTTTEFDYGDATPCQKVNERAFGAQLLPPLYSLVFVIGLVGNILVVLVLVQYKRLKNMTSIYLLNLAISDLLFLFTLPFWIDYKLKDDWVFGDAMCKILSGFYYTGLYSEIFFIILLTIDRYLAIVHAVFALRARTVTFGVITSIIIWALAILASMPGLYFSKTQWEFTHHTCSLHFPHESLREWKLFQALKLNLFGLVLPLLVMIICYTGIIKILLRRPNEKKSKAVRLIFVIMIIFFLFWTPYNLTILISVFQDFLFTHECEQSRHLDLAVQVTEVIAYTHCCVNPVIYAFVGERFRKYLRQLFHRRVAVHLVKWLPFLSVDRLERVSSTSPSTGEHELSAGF
Method: For quantification of signaling initiated immediate downstream of receptor activation, we used the cAMP binding CAMYEL sensor to perform bioluminescence resonance energy transfer (BRET)-based assays. Shortly, in this assay increased receptor activation leads to an increase in BRET ratio. For detailed information see the Materials and Methods section.
In signaling assays testing the boosting ability of basic peptides, transfected cells were aliquoted into 96-well plates in the presence of 10 µM peptide or PBS vehicle. After R-Luc substrate addition, chemokines were added to reach final concentrations ranging from 0–100 nM (0, 0.1, 1, 10, and 100 nM) and forskolin was applied before reading emission at 475 and 525 nm.
BRET measurements of Gαi signaling and β-arrestin recruitment: Cells were seeded in 6-well plates (500,000 cells/well) and transiently transfected the following day. For BRET measurements of Gαi signaling, cells were transfected with vectors encoding the human chemokine receptors as indicated (160 ng/well) and the CAMYEL sensor (cAMP sensor, YFP-Epac-RLuc) (840 ng/well) using Lipofectamine (6 µL/well). Briefly, DNA was dissolved in 125 µL OPTI-MEM and Lipofectamine was dissolved in 125 µL OPTI-MEM. The DNA and Lipofectamine solutions were combined into a transfection mixture. The transfection mixture was added dropwise to cells incubated in OPTI-MEM (1 mL/well). Transfections were terminated after 5 h by adding 1 mL of fresh culture medium on top of the OPTI-MEM. The following day the cells were loosened from the plates in PBS with 5 mM glucose and subsequently aliquoted in white 96-well iso plates (~25,000 cells/well). When using C21TP variants and defense peptides (hBD2 and histatin), these were added to a final concentration of 10 μM/well, while an equal amount of PBS was added to control cells. The bioluminescence substrate coelenterazine was added to a final conc. of 5 µM. After 10 min, varying ligand concentrations were added. For BRET measurements of Gαi signaling, forskolin was added 5 min after the addition of the ligand, to a final conc. of 5 µM. The plates were kept in the dark at all times. A Perkin Elmer Envision machine was used for measuring the emission signals at 530 and 480 nm. The BRET signal is determined as the ratio eYFP (530 nm)/Rluc (480 nm).
BRET principle with CAMYEL: For quantification of signaling initiated immediately downstream of receptor activation, we used the cAMP binding CAMYEL sensor to perform bioluminescence resonance energy transfer (BRET) based assays. In this assay we measure changes in intracellular cAMP levels in response to receptor activation. Activation of chemokine receptors lead to a decrease in cAMP through inhibition of adenylate cyclase (AC). In the current setup we initially add forskolin that stimulates AC directly to induce an increase in intracellular cAMP, and we then measure the ability of a ligand (chemokine) to counteract the forskolin-induced increase in cAMP. The cAMP sensor (CAMYEL cAMP sensor, YFP-Epac-RLuc) carries the donor Renilla luciferase (Rluc) and the acceptor YFP. Coelenterazine is a substrate for Rluc that will emit light at around 475 nm upon enzymatic cleavage catalyzed by Rluc. When Rluc and YFP are in close proximity, the energy from the emitted light from coelenterazine can be transferred to YFP, resulting in an excitation of YFP, leading to a BRET signal around 525 nm. EPAC is a cAMP binding protein that changes conformation upon cAMP binding. During low cAMP concentrations, Rluc and YFP are near each other, and a strong BRET signal at 525 nm is obtained. When cAMP levels increase, cAMP will bind to EPAC, creating a conformational change, separating Rluc and YFP, reducing the BRET ratio, and increasing the emission from Rluc at 475 nm. Thus, by measuring the ratio between the cAMP-bound (475 nm) and the cAMP-free (525 nm) state of CAMYEL we obtain a measure of receptor activation. […]

[1] = molecular target: fully sulfated version of the CCR1 N-terminal peptide; parameters: method as in PMID 30567735; settings: read-out: affinity for the fully sulfated version of the CCR1 N-terminal peptide; cited from earlier work
[2] = test system: peptide corresponding to the CCR2 receptor N-terminus; settings: cited from earlier work
[3] = molecular target: T2, chemokine receptor CCR1 (untagged, wild type) (human) (UniProt P32246)
T2 sequence: T1 sequence (P32246 1-355)

[4] = molecular target: chemokine receptor CCR5 (untagged, wild type) (human) (UniProt P51681)
CCL2 (Homo sapiens) [5] = molecular target: CCL2 (Homo sapiens) (UniProt P13500); settings: cited from earlier work
CCR2 D25A/D27A mutant = settings: cited from earlier work
Excerpt: (§1) The reliance on electrostatic interactions between basic amino acids in the chemokine and acidic regions in the receptor N-terminus for chemokine receptor binding is illustrated by a study carried out by Hemmerich et al.. To investigate the influence of charge, hydrophobicity, and aromaticity on binding of CCL2 to its cognate receptor CCR2, this group substituted all surface-exposed residues on CCL2 by alanine. […] In contr ...

CCR2 = settings: mean ± SD; SD; read-out: binding affinity, Kd, for the WT receptor CCR2; cited from earlier work
Excerpt: as §1

CCL5 (Homo sapiens) = CCL5 (Homo sapiens) (UniProt P13501); settings: cited from earlier work
CCL7 (Homo sapiens) = CCL7 (Homo sapiens) (UniProt P80098); settings: cited from earlier work
CCL2 (Homo sapiens) [6] = molecular target: CCL2 (Homo sapiens) (UniProt P13500); settings: cited from earlier work; remark: listed apart in the source
[7] = molecular target: T3, FAM-labelled peptide corresponding to the naked (unmodified) CCR1 N-terminus (human, 5,6-carboxyfluorescein (5,6-FAM) on the N-terminus); assay: fluorescence polarisation; FAM-labelled receptor N-terminal peptide as probe at 250 nM in FP buffer (1:3, PBS:MilliQ), black 384-well plate; basic peptide titrated in a two-fold series, 12.21 nM to 100 µM (told for C21TP^81-111); triplicates; Kd fitted in GraphPad Prism 9; settings: both partners purified
T3 construct: first printed residue of the probe; stretch of the N-terminus of the chemokine receptor CCR1, not sulfated, not glycosylated; also called CCR1 N-terminal peptide; CCR1 probe
T3 peptide: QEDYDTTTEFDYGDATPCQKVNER

Sequence of CCL2 (Homo sapiens) (P13500 24-99): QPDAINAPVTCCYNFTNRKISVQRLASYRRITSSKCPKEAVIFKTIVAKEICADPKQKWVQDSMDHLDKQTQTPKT
Sequence of chemokine receptor CCR5 (untagged, wild type) (human) (P51681 whole entry): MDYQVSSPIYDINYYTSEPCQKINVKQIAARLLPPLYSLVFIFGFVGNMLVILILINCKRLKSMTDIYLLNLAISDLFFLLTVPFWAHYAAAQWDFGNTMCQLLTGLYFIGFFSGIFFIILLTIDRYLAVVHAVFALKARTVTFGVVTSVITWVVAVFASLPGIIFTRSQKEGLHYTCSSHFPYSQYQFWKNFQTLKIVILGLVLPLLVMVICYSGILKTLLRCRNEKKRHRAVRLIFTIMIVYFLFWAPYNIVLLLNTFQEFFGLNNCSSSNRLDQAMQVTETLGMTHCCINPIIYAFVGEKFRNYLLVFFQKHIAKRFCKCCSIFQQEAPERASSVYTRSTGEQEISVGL
Sequence of CCL5 (Homo sapiens) (P13501 24-91): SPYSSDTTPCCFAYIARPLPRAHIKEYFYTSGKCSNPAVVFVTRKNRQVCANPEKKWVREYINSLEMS
Sequence of CCL7 (Homo sapiens) (P80098 24-99): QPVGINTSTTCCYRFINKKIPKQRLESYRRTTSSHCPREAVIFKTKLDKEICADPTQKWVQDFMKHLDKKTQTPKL

Molecule: CCL7: human chemokine from Peprotech
- Gαi signaling via CCR1 in DeltaSia and sC cells compared to WT cells (CCR1; HEK293 DeltaSia and sC): persists in DeltaSia and sC to almost the same high level as observed in WT cells
- Kd [1]: 100 nM
- increase of chemokine binding by tyrosine sulfation of the CCR2 N-terminus peptide [2]: up to 36 fold

- LogEC50 of CCL5-induced Gαi signaling (CAMYEL cAMP BRET) via CCR1 in CHO GAG-minus cells [3]: -9.42
- LogEC50 of CCL5-induced Gαi signaling (CAMYEL cAMP BRET) via CCR1 in CHO GAG-plus (WT) cells [3]: -8.89
- LogEC50 of CCL5-induced Gαi signaling (CAMYEL cAMP BRET) via CCR5 in CHO GAG-minus cells [4]: -9.63
- LogEC50 of CCL5-induced Gαi signaling (CAMYEL cAMP BRET) via CCR5 in CHO GAG-plus (WT) cells [4]: -7.52
Molecule: Human CCL5 (from UniProt P13501 24-91) (ligand)

Molecule: CCR2 (from UniProt P41597)
- Kd (CCL2 (Homo sapiens) [5]): > 3 nM

Molecule: CCL2: human chemokine from Peprotech
- Gαi signaling response of M1-CCR1 to ligand (CCR1; M1-tagged CCR1, HEK293 WT cells): to a minor degree
- reduction in affinity, D25A/D27A mutant versus WT CCR2 (CCR2 D25A/D27A mutant): approximately 50 fold
- Kd (CCR2 D25A/D27A mutant; read-out: binding affinity, Kd, for the D25A/D27A mutant version of CCR2): ≥ 3 nM
- Kd (CCR2): 0.066 ± 0.01 nM
- Kd [1]: 100 nM

Molecule: CCR1 N-terminus (from UniProt P32246)
- Kd (CCL5 (Homo sapiens)): 100 nM
- Kd (CCL7 (Homo sapiens)): 100 nM
- Kd (CCL2 (Homo sapiens) [6]): 100 nM

- Kd [7]: ~2890 nM
B1: C21TP^81-111, basic C-terminal peptide of the chemokine CCL21 (last 31 aa, residues 81-111) (peptide, UniProt O00585 104-134, looked up)
peptide: RKDRGASKTGKKGKGSKGCKRTERSQTPKGP
notes: also called C-terminal peptide of CCL21; source: bought: Caslo (Lyngby, Denmark)
